EC50 and Kd data for four molecules are collected here from publication PMC8591604 (2021).

For experiment [1], the target named is T1, N-SH2 domain of SHP2 (residues 2–111) (human, UniProt Q06124 2-111).
T1 chain: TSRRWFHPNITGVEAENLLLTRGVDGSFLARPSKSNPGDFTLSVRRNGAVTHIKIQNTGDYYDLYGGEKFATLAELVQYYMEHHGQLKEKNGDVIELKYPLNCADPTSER
The experiment in a line: FP; displacement of CF-P9W5.

The target in experiment [2] is T1, N-SH2 domain of SHP2 (residues 2–111). The experiment in a line: FP; displacement of CF-P9W5.
For experiment [3] the target is unchanged. Briefly: FP.
Experiment [4] shares this target. Briefly: FP.

[ ]: non-standard residue; d: D form. pY = N[C@@H](Cc1ccc(OP(=O)(O)O)cc1)C(=O)O

B1: P8, unlabeled IRS-1 pY1172 peptide, residues −2 to +5 (peptide)
peptide: Ac-LN[pY]IDLDL-NH2
SMILES: CC[C@H](C)[C@H](NC(=O)[C@H](Cc1ccc(OP(=O)(O)O)cc1)NC(=O)[C@H](CC(N)=O)NC(=O)[C@H](CC(C)C)NC(C)=O)C(=O)N[C@@H](CC(=O)O)C(=O)N[C@@H](CC(C)C)C(=O)N[C@@H](CC(=O)O)C(=O)N[C@@H](CC(C)C)C(N)=O
Turning to B1, the EC50 in experiment [1] was 0.047 µM. In addition, the Kd in experiment [2] is 0.022 µM.

B2: P8F5, P8 analogue with F at position +5 (peptide)
chain: Ac-LN[pY]IDLDF-NH2
SMILES: CC[C@H](C)[C@H](NC(=O)[C@H](Cc1ccc(OP(=O)(O)O)cc1)NC(=O)[C@H](CC(N)=O)NC(=O)[C@H](CC(C)C)NC(C)=O)C(=O)N[C@@H](CC(=O)O)C(=O)N[C@@H](CC(C)C)C(=O)N[C@@H](CC(=O)O)C(=O)N[C@@H](Cc1ccccc1)C(N)=O
The molecule B2 showed a concentration giving a half-maximal response (EC50) in experiment [3] of 0.016 µM. The same molecule registered a Kd in experiment [4] of 0.007 µM.

B3: P8W5, P8 analogue with W at position +5 (peptide)
chain: Ac-LN[pY]IDLDW-NH2
With B3, the EC50 in experiment [3] was determined as 0.0054 µM.

B4: P8E4W5, P8 analogue with E at position +4 and W at position +5 (peptide)
chain: Ac-LN[pY]IDLEW-NH2
SMILES: CC[C@H](C)[C@H](NC(=O)[C@H](Cc1ccc(OP(=O)(O)O)cc1)NC(=O)[C@H](CC(N)=O)NC(=O)[C@H](CC(C)C)NC(C)=O)C(=O)N[C@@H](CC(=O)O)C(=O)N[C@@H](CC(C)C)C(=O)N[C@@H](CCC(=O)O)C(=O)N[C@@H](Cc1c[nH]c2ccccc12)C(N)=O
Molecule B4 showed an EC50 in experiment [3] of 0.011 µM. The Kd in experiment [4] came out at 0.004 µM.

As a reminder, the EC50 is the concentration that produces a half-maximal response. One may read the Kd as the free concentration of one partner at which half of the binding sites on the other are occupied at equilibrium, for simple one-to-one binding. A low value points to a tighter complex.
